Experimental findings from the DeepSol protein solubility set are described below.

The nature of this data set: soluble on expression in E. coli; label from the status in PepcDB or PDB records.
In the case of “AHHHHHHGSKFEELNEKIKKVYGKVRTIDDFHWHISDNLIHGIHKKSGLRLEIRIAESKEAADKIAQKKEPGNLMVIVVPGKETFYVNNGAFVLALKFLRSTIQDISDHIVWAGFKVVERDGALEQEDIYEYLGGRLIEHIKSGMVNGKDYIFWQFYKCEHCGKYVDIENLVRHMKTHGEDVKEWSEEKYEVLELSFEDKKVYNKFGKEVPLEEFVEETQDFIKEVFES”, the “soluble on expression in E. coli” value is recorded as “soluble”.

For the sequence “MIQFKDSYKHYGANGREVTALQPLNLEIRAGEVFGIIGHSGAGKSTMLRMINRLEEPSGGHLLINGQDITVLDRMGLRALRRQIGMIFQHFNLLSSYTVAGNVAFPLKLTGASDAKINARVAELLAWVGLEAHANTYPAQLSGGQKQRVGIARALATRPQILLCDEVTSALDPQTTSTVLQLLARINRELGLTIVLITHEMDVIRRICDRVAVLDTGRLVEIGLVTDVFLHPQHPTTRSFVMETEHIDTSALDQDFALVKGRIVRLTFIGTDTYLPLLGRVARETGVDYNILSGRIDRIKETPYGQLTVALSGGDPVAAQAAFAAAGIHIEELRA”, the “soluble on expression in E. coli” value is given as “not soluble”.

As for “SNAMNVIRLKEDKFREALRLSEYAFQYKVDEDRLQQQITKMKESHEVYGIMEGENLAAKLHLIPFHIYIGKEKFKMGGVAGVATYPEYRRSGYVKELLQHSLQTMKKDGYTVSMLHPFAVSFYRKYGWELCANLLVCHMTKSDLVMKKQVNGTVKRFNKESHPEEVEKLYETFAELFSGMLVRNEKWWLQAVYDDLTLAIYYDENQTAAGYMLYKIENYKMTVEEFVPLHNEARNGLWNFICQHDSMIKDLEMTVSENEPLLYTLQEPRVKTEIKPYFMGRIVDVEQFLKQYELNWNNVQQEVILHITDSFAQWNNITVRIANHEITIIEEPIDKGIKLDINALSTILFGYRRPLELNELELISGSEEEIRAFESVVPVRKPFIYDFF”, the “soluble on expression in E. coli” value is given as “soluble”.

As to “MGSDKIHHHHHHMDIKQLKFLIALDETRHFGQAAARCNITQPTLSMRLRNLEEELGLPLVNRGQRFEGFTAPGERVLAWARTVLAAYDGLQAEAAACRGHLVGTLRLGVVPMSSFDPLPLLHRLHQLHPNLRFELSSLSSEQVLEQLASNRIDLGVSYLERLDSERFDSLTLDETRMGLLYDRRHFTFGDTPLSWADLVELPLGTLTSGMHFRQSIDHNFHSRGLQPNPLIQTDAVHQLLQAVHGGFCCAIMPLDGGLETLTEHLHLHPIADACTLARLGLIMRRSAPRSALAEACFALVAEIPR”, the “soluble on expression in E. coli” value is listed as “not soluble”.

In the case of “SLRTYFAQRAEMEQLAATEAMLRRQIADLEEQQVKLADPAYIAAQARERLGFVMPGDIPFQVQLPSTPLAPPQPGSDAATATNNEPWYTALWHTIADDPHLPPAAPPAPEPGRPGPLPPASPNPEQPGG”, the “soluble on expression in E. coli” value is “soluble”.

In the case of “MGSDKIHHHHHHMSSLINDIHAEDVANYLNRNREFFHVFPNLLNELSIPHPKSGHEVSLLERQVFQLREQRDSLQVEVDTLKDIAGENGALLHKVYDLSYALLAAESEQEAVNVVYDVMHDVFTVEEVTIISWEVPKSSVHGVNQLGISQAWSQSLKETLQPGKPVCGLLEDSWQKGLFHTDKAMQSVCVIPLGQQRVWGALALGATTDRFSPELGTYFLKVMGQMVTARLQRLF”, the “soluble on expression in E. coli” value is reported as “not soluble”.

Take “MIRFARPKPIIDSVSYNLLQKCYASGTPKGKSKLKTGQSLKRNKLTIKKGGGNGGGRGGDEVDKGKGRISDQCINAPCPVRYLRPKEREREARREKLGLISKARQKEIDFQKKGGSFTMGVTTAPMRIGTPGLDYISLGIFTEDELPKYKVTVEDGIRLAKEYSRVLMREHRARRVAEISLMKMRNAAVEALPENLKKAALVRDLTPFPVSRGTVRLLHLLKGIWRGL”: the “soluble on expression in E. coli” value is “soluble”.

For “MAHHHHHHMDEGDHSDKESVGEEIVGEDHVEDKDGKPKRSYEKMVEEIKIENSKSFISKISEPLLKKKYFKYFLKILDYAYYAKVTAMQIIKTNEQIEERKKKILKNKFVVIGITQVVKAIRKGVDGIVFLAIDVFPIDIICHMPVFCEEHKIPYTFVTTKNKLARLCKLKRSVTCLFLPKPNIDIDKFEATVNEFSSKKKISNYAKLYEKMLSGVKKNHPFFQS”, the “soluble on expression in E. coli” value is given as “soluble”.

In the case of “MACVDISPLSYESVKSVVKYLSLKKREQINLSIPAYHKTAKLAPFKLENVGLSDLYIEVNDRTWTLSETDIIGCTLVLYRSNGYNFQHIISITPEVAFQKLISEYLRNGTRIKKFHLYALPSLLKNVELHVSELKIDGCDYETFAKFRKFIDHNQKILKEIGFVVRQNTLWMFDEQLVKNSKEIYLQFPYYNPVPLDDMLLRLKNNHVHIIYLGFPIEKLQELAMNWIDTKKPIGTSLFLVVEHYTYVIDVFEHLTKYSKAIPSRLTDLGTSFFSHCVTMHIDESSELVLFGGPMVIEWKPFKWTLRMTIMKRGSTISK”, the “soluble on expression in E. coli” value is “not soluble”.

For the sequence “MSLSLEERERAVELYFTTPMTTAQVVEHLGYPTRQCLERWLAMDSRYAGHMAKPIIPLETRRRAVELVLGGMQQKQAAKQLGVSVGAVHGWVRAYRKGGMAALQPKNRNSAQGNKPADSRRRPSAADDDDAEALRRRVEELELENALMREVVEVVKKDPGADLRRLSNREKTLLIDRLRPAYSLRSMTCLLAIAPSSYHYHHARLGVDKYAGLRAEVAGAFADSKGRYGYRRIKAVLKTGVSEKVVRRIMAEEGLVAHVPKRRRYSSYEGETTPAPANLVDRDFTAERPNEKWLTDISEIKARDGKVYLSPMIDCFDGKIVAYTAGFSPNAELANRMLEKAASTLPGNARPLVHSDRGCHYRWPGWLGLMERFGLTRSMSAKGCSPDNAAAEGFFGRMKTESVYPEHWEKRTRDEVLILIDDYIRWYNHERIKRSLGWMSPVQYRQSQGMAEGHHHHHH”, the “soluble on expression in E. coli” value is reported as “not soluble”.

Consider “MGSDKIHHHHHHMATKHEQILQYITNLEVGEKISVRRIAKDLQVSEGTAYRAIKEAENQGLVSTIERVGTIRIEKKQKENIEKLTYAEVVNIVDGQVLGGRDGLHKTLNRFVIGAMKLDAMMRYVEPGNLLIVGNRYQVHQIALEAGAAVLITGGFDTSDEAIKLADELDLPVISTSYDTFTVATMINRAIYDQLIKKEITLVDDILIPLQDTYYMTTENVVGKWHELNEKTGHSRYPVIDENMKIQGMVAAKDVLNASRHTPIEKVMTKNPITVSERTSVAAVAHVMVWEGIELLPVIDSHRKLIGVVSRQDVLKALQMIQRQPHVGETIEDLMTNGLNESSSDQGDSYEVEITPQMTNQLGTISHGVMTSLVIESGSRVLRKYKKGDLVVENITLYFLKPVQIDSRLTIRPRVLEIGRKHGKIDVEMYHEGEIVGKALFMAQIID”, for which the “soluble on expression in E. coli” value is recorded as “not soluble”.

With “MQQQGWRTYLYDAEQPYTPVASVTGKGESRQVWYYHTDVTGTPQEVTAADGTLVWAGYIKGFGENAADISNSGAYFHQPLRLPGQYFDDETGLHYNLFRYYAPECGRFVSQDPIGLAGGLNLYQYAPNPIRWIDPLGLAILEHQSNFDAARRTGFENAGMTNPEDVTFSKVDPKTGTVVEFKGPNGAKVAYDAPHADMDVTAGHDKPHVGWQSAGKRGSGGANRGNITYDGPQHPHRSDSKGDDKCLEHHHHHH”, the “soluble on expression in E. coli” value is recorded as “not soluble”.

As to “MGSSHHHHHHGKTIFVIVPTNEEQVAFLEALAKQDELNFDWQNPPTEPGQPVVILIPSDMVEWFLEMLKAKGIPFTVYVEEGGSENLYFQGGGGGGPKREEQMYMHIRKVYGDNIPEELLQRAKRQREAQDALTLTNMLRTPTPGQTSNALQNDLDPRALIELKSWNGH”, the “soluble on expression in E. coli” value was “soluble”.

With “MVLRTGRLSDFQRDMMNDHWAKFGLDYQKSPFDFVEIFGNANPVVLEIGFGMGRSLVEMAAQNPDRNYIGIEVHTPGVGACIAYAVEKQVDNLRVICHDATEILRDAVADGSLAGLQLYFPDPWQKSKHHKRRIVQTEFVMRLLTKLTAGGFIHFATDWQNYAEHMLAVLRQFSPALVNTSPTGDFIDRPAFRPLTKFEARGQRLGHAVWDLYFVKKLEHHHHHH”, the “soluble on expression in E. coli” value is recorded as “not soluble”.
